Source: patent US12514920B1, “Respiratory syncytial virus mRNA vaccine, and preparation method therefor and use thereof” (Hangzhou Tianlong Pharmaceutical Co., Ltd., priority 2024, dated 2026)
Numbering of substitutions follows the chain as printed.

B1: YK-RSV-022 (protein)
chain: QNITEEFYQSTCSAVSKGYLGALRTGWYTSVITIELSNIKENKCNGTDAKVKLIKQELDKYKNAVTDLQLLMQSTPACGSGSACASGVAVSKVLHLEGEVNKIKSALLSTNKAVVSLSGCGVSVLTFKVLDLKNYIDKQLLPIVNKQSCSIPNIETVIEFQQKNNRLLEITREFSVNAGVTTPVSTYMLTNSELLSLINDMPITNDQKKLMSNNVQIVRQQSYSIMSIIKEEVLAYVVQLPLYGVIDTPCWKLHTSPLCTTNTKEGSNICLTRTDRGWYCDNAGSVSFFPQAETCKVQSNRVFCDTMNSRTLPSEVNLCNVDIFNPKYDCKIMTSKTDVSSSVITSLGAIVSCYGKTKCTASNKCRGIIKTFSNGCDYVSNKGVDTVSVGNTLYYVNKQEGQSLYVKGEPIINFYDPLVFPSSEFDASISQVNEKINQSLAFIRKSDELLHNVNAGKSTTNIMITTIIIVIIVILLSLIAVGLLLY
B2: YK-RSV-038 (protein)
chain: QNITEEFYQSTCSAVSKGYLGALRTGWYTCVITIELSNIKENKCNGTDAKVKLIKQELDKYKNAVTDLQLLMQSTPATGSGSAIASGVAVSKVLHLEGEVNKIKSALLSTNKAVVSLSNGVCVLTFKVLDLKNYIDKQLLPILNKQSCSIPNIETVIEFQQKNNRLLEITREFSVNAGVTTPVSTYMLTNSELLSLINDMPITNDQKKLMSNNVQIVRQQSYSIMSIIKEEVLAYVVQLPLYGVIDTPCWKLHTSPLCTTNTKEGSNICLTRTDRGWYCDNAGSVSFFPQAETCKVQSNRVFCDTMNSRTLPSEVNLCNVDIFNPKYDCKIMTSKTDVSSSVITSLGAIVSCYGKTKCTASNKNRGIIKTFSNGCDYVSNKGVDTVSVGNTLYYVNKQEGQSLYVKGEPIINFYDPLVFPSDEFDASISQVNEKINQSLAFIRKSDELLHNVNAGKSTTNIMITTIIIVIIVILLSLIAVGLLLY
B3: YK-RSV-056 (protein)
chain: B2 chain with C30S, A83C, C122S, S223C
B4: YK-RSV-005 (protein)
chain: QNITEEFYQSTCSAVSKGYLGALRTGWYTSVITIELSNIKENKCNGTDAKVKLIKQELDKYKNAVTDLQLLMQSTPATGSGSAICSGVAVCKVLHLEGEVNKIKSALLSTNKAVVSLSNGVSVLTIKVLDLKNYIDKQLLPIVNKQSCSISPIETVIEFQQKNNRLLEITREFSVNAGVTTPVSTYMLTNSELLSLINDMPITNDQKKLMSNNVQIVRQQSYSIMCIIKEEVLAYVVQLPLYGVIDTPCWKLHTSPLCTTNTKEGSNICLTRTDRGWYCDNAGSVSFFPQAETCKVQSNRVFCDTMNSRTLPSEVNLCNVDIFNPKYDCKIMTSKTDVSSSVITSLGAIVSCYGKTKCTASNKNRGIIKTFSNGCDYVSNKGVDTVSVGNTLYCVNKQEGQSLYVKGEPIINFYDPLVFPSSEFDASISQVNEKINQSLAFIRKSDELLHNVNAGKSTTNIMITTIIIVIIVILLSLIAVGLLLY
B5: YK-RSV-014 (protein)
chain: B4 chain with Q9C, C91S, S151P, P152N, C226S, G407C
B6: YK-RSV-018 (protein)
chain: B4 chain with Q9C, C91S, I126F, S151P, P152N, T155I, C226S, G407C
B7: YK-RSV-017 (protein)
chain: B2 chain with T33L, A85C, C122S, L124C, L143V, Y394C, D422S

Assays:
[1] = tested on: RSV pre-F antibody (3C12); experiment: Binding of epitope Φ of RSV F antigen mutants by flow cytometry; details: for RSV pre-F antibody (3C12) Epitope Φ (%): binding rate, 293T cells 16 h after mRNA-LNP transfection; for Φ/II (%): ratio of epitope Φ (3C12) to epitope II (11A9) binding rate
Source text: (§1) To investigate whether the RSV F antigen mutants have pre-fusion epitopes, an RSV pre-F antibody (3C12) (specifically binding to the RSV pre-F epitope […]) and an RSV F antibody (11A9) (binding to pre-F and post-F epitopes II) were detected by flow cytometry in this example, and RSV F protein mutants in the pre-F conformation were expected to bind to the antibodies tested.
(§2) • 293T cells (purchased from ATCC cell bank); RSV pre-F antibody (3C12), epitope […] (Novoprotein, Cat. No.: DA101); RSV F antibody (11A9), epitope II (Novoprotein, Cat. No.: DA091); • experimental groups: mRNA vaccines corresponding to the expressed antigens in Example 3;
(§3) • (1) Cell transfection: 293T cells were seeded at 1.3×10^5 cells/well in a 24-well plate. The next day, mRNA-LNP samples (containing 300 ng of mRNA) were added directly to the cells, and the mixture was uniformly mixed. • (2) Cell collection: The cells were taken out of the incubator after 16 h of transfection, the medium was pipetted off, 500 μL of 0.1% BSA solution was pipetted to wash the medium remaining in the well plate, taking care not to resuspend the cells, and the 0.1% BSA solution was pipetted off. 500 μL of 0.1% BSA solution was added to each well, and the cells were pipetted and transferred to a 1.5 mL centrifuge tube. • (3) Centrifugation: The cells were harvested by centrifugation at 400 g for 5 min at 4° C. in the dark, and the supernatant was discarded. • (4) Straining: 50.6 μL of RSV fluorescent antibody diluent was added to each of the control sample and the test samples to resuspend the cells, and the samples were incubated at 4° C. for 2 h in the dark. • (5) Cleaning: After the incubation was completed, 500 μL of 0.1% BSA solution was added to each tube, the cells were harvested by centrifugation at 400 g for 5 min at 4° C. in the dark, and the supernatant was discarded. This operation was repeated three times. • (6) Resuspension of cells: 200 μL of 0.1% BSA solution was added to each sample, and the cells were carefully pipetted to prepare a cell suspension. • (7) Detection on flow cytometer: The […] of RSV F mutants to antibodies were measured using flow cytometry, with 1×10^4 cells detected in each measurement.
(§4) The RSV pre-F antibody (3C12) used in this example specifically binds to the RSV pre-F epitope Φ, and the RSV F antibody (11A9) binds to the pre-F and post-F epitopes II. Whether the pre-fusion conformations of the RSV F mutants are stable can be further determined by detecting the binding of the epitope Φ and the epitope II on the mutants to corresponding epitopes of antibodies 3C12 and 11A9, respectively, by flow cytometry.

RSV F antibody (11A9) = experiment: Binding of epitope II of RSV F antigen mutants by flow cytometry; details: for RSV F antibody (11A9) Epitope II (%): binding rate, 293T cells 16 h after mRNA-LNP transfection
Source text: as §1, §2, §3, §4

[2] = tested on: RSV pre-F antibody (3C12); type: physicochemical; details: ELISA binding to 3C12; for Stress resistance parameter, Osmotic pressure (mM) 3000: high osmotic pressure 3000 mM; for Stress resistance parameter, Osmotic pressure (mM) 3000 / Stress resistance parameter, Osmotic pressure (mM) 10: room temperature; for Stress resistance parameter, Osmotic pressure (mM) 3000 / Stress resistance parameter, Osmotic pressure (mM) 10 / Stress resistance parameter, pH 3.5 / Stress resistance parameter, pH 10: 60 min; for Stress resistance parameter, Temperature (° C.) 50: incubation at 50° C. for 60 min; for Stress resistance parameter, Osmotic pressure (mM) 10: low osmotic pressure 10 mM; for Stress resistance parameter, pH 3.5: pH 3.5, room temperature; for Stress resistance parameter, pH 10: pH 10, room temperature; for Stress resistance parameter, Temperature (° C.) 4: storage at 4° C. for one week
Source text: To investigate the stability of the RSV F antigen mutants under different pH, temperature, osmotic pressure and other conditions, the mutants were subjected to stress tests under different treatment conditions in this example.
• 293T cells (purchased from ATCC cell bank); • Primary antibody: RSV pre-F antibody (3C12), epitope Φ (purchased from Suzhou Novoprotein Scientific Co., Ltd. (hereinafter referred to as Novoprotein), Cat. No.: DA101); • Standard: RSV pre-F trimer protein (Novoprotein, Cat. No.: DRA230); • Secondary antibody: peroxidase AffiniPure goat anti-human IgG (H+L) (purchased from Yeasen Biotechnology (Shanghai) Co., Ltd. (hereinafter referred to as Yeasen), Cat. No.: N/A); • Experimental group: mRNA vaccines after screening in Example 4;
Coating: A 96-well microplate was coated with a working solution and incubated at 2 to 8° C. for 16 to 20 h.
Plate washing: Phosphate buffered saline PBST was added to each well, and the plate was washed 5 times using a plate washer and patted dry on absorbent paper.
Blocking: After a blocking solution was added, the […] were placed on a constant temperature microplate shaker and incubated at 400 rpm for 1.5 h at 37° C.
Plate washing: PBST was added to each well, and the plate was washed 5 times using a plate washer and patted dry on absorbent paper.
Primary antibody incubation: A primary antibody dilution was added to each well, and the plate was sealed with a sealing film, and then incubated at 400 rpm for 1.5 h at 37° C.
Secondary antibody incubation: A secondary antibody dilution was added to each well, and the plate was sealed with a sealing film, and then incubated at 400 rpm for 45 min at 37° C.
Color development: A chromogenic solution was added, and the plate was sealed with a sealing film, and then placed on a constant temperature microplate shaker and incubated at 400 rpm for 25 min at 37° C.
Reaction stopping: After the color development was completed, a stop buffer was added at […] to the microplate to stop the reaction.
Plate reading: Absorbance values (OD values) were read within 5 min using a multimode microplate reader, with dual wavelengths of 450 nm and 630 nm set.
In this example, stability screening of the mutants through different treatment conditions was defined as a stress test, including storage at 4° C. for one week; incubation at 50° C. for 60 min; treatment at room temperature under low osmotic pressure and high osmotic pressure conditions for 60 min; treatment at room temperature under acid and base conditions for 60 min. The binding of the mutants to the RSV pre-F antibody (3C12) recognizing the epitope Φ was detected by ELISA.

Row | Molecule | RSV pre-F antibody (3C12) Epitope Φ (%) ([1]; flow cytometry) | RSV pre-F antibody (3C12) Epitope Φ (%) binding rate ([1]; flow cytometry, epitope Φ, antibody 3C12) [%] | Φ/II (%) [1] [%] | RSV F antibody (11A9) Epitope II (%) (RSV F antibody (11A9)) | RSV F antibody (11A9) Epitope II (%) binding rate (RSV F antibody (11A9); epitope II, antibody 11A9) [%] | Stress resistance parameter, Osmotic pressure (mM) 3000 [2] | Stress resistance parameter, Temperature (° C.) 50 [2] | Stress resistance parameter, Osmotic pressure (mM) 10 [2] | Stress resistance parameter, pH 3.5 [2] | Stress resistance parameter, pH 10 [2] | Stress resistance parameter, Temperature (° C.) 4 [2]
1 | RSVA2 (138251)-wt: wild sequence of RSV A2 F protein, full length (1 to 574 aa) [reference compound] | 1.0 | 1.0 | 4.3 | 23.1 | 23.1 |  |  |  |  |  | 
2 | B1 | 0.2 |  | 9.5 | 2.1 |  |  |  |  |  |  | 
3 | B2 |  |  | 94.8 |  |  | 0.55 ± 0.13 | 0.70 ± 0.10 | 0.74 ± 0.08 | 0.88 ± 0.17 | 0.82 ± 0.26 | 0.32 ± 0.08
4 | B3 |  |  | 97.4 |  |  | 0.44 ± 0.08 | 0.91 ± 0.09 | 0.82 ± 0.07 | 0.64 ± 0.12 | 0.72 ± 0.14 | 0.69 ± 0.10
5 | B4 |  |  | 96.2 |  |  | 0.47 ± 0.08 | 0.44 ± 0.06 | 0.57 ± 0.00 | 0.64 ± 0.20 | 0.88 ± 0.14 | 0.55 ± 0.09
6 | B5 | 0.0 |  | 0.0 | 0.1 |  |  |  |  |  |  | 
7 | B6 | 68.4 |  | 89.6 | 76.3 |  |  |  |  |  |  | 
8 | B7 |  |  | 96.5 |  |  | 0.46 ± 0.06 | 0.60 ± 0.04 | 0.59 ± 0.03 | 0.76 ± 0.11 | 0.93 ± 0.06 | 0.35 ± 0.07
